Source: patent US20250262210A1 (TRUSTEES OF COLUMBIA UNIVERSITY IN THE CITY OF NEW YORK, published 2025)

Columns and labels:
Test in all cases: IP/MS, LZTR1 R810W-FLAG, U87
FKBP15 = target: T1, FKBP15 (human, UniProt Q5T1M5 1-1219, limits assumed)
T1 sequence (looked up): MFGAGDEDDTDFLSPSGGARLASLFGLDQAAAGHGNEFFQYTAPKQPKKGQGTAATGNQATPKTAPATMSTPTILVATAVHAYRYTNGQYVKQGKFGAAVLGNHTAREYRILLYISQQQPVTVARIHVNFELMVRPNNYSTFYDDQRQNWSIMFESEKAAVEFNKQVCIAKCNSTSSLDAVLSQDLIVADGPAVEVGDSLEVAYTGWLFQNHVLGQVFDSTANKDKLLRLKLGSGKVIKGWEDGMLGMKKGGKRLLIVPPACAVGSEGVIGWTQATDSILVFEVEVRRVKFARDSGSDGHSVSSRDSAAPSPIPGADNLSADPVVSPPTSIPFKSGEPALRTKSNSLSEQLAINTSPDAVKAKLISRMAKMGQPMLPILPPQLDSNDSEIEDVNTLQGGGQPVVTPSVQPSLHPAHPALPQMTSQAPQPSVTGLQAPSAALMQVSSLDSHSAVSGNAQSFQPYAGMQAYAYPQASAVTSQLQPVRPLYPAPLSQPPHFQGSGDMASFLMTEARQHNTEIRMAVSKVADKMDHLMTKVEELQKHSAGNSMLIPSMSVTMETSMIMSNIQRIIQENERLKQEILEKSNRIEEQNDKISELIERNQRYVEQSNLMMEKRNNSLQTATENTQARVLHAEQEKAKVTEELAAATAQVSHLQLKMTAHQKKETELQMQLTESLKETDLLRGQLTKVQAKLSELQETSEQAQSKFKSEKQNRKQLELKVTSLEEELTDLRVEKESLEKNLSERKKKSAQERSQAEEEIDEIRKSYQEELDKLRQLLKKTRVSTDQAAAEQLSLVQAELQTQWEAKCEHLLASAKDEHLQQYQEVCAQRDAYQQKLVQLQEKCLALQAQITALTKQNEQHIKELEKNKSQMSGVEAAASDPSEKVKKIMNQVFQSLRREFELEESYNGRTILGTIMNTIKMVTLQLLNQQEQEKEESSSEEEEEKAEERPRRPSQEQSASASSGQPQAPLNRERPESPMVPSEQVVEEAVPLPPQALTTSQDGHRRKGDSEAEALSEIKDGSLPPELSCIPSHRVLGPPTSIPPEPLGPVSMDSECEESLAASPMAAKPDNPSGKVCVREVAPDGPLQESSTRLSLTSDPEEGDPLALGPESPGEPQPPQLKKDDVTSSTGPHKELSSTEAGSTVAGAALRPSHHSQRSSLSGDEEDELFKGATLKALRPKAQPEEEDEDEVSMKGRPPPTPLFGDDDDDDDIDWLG
In short: (§1)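 Extracted peptides in 3% acetonitrile/0.1% formic acid ran on a 50 cm C18 column into an Orbitrap Fusion, with MaxQuant identification and spectral counting.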

VPS13A = VPS13A (human, UniProt Q96RL7 1-3174, limits assumed)
In short: as §1

RTTN = RTTN (human, UniProt Q86VV8 1-2226, limits assumed)
In short: as §1

MED24 = target: T2, MED24 (human, UniProt O75448 1-989, limits assumed)
T2 sequence (looked up): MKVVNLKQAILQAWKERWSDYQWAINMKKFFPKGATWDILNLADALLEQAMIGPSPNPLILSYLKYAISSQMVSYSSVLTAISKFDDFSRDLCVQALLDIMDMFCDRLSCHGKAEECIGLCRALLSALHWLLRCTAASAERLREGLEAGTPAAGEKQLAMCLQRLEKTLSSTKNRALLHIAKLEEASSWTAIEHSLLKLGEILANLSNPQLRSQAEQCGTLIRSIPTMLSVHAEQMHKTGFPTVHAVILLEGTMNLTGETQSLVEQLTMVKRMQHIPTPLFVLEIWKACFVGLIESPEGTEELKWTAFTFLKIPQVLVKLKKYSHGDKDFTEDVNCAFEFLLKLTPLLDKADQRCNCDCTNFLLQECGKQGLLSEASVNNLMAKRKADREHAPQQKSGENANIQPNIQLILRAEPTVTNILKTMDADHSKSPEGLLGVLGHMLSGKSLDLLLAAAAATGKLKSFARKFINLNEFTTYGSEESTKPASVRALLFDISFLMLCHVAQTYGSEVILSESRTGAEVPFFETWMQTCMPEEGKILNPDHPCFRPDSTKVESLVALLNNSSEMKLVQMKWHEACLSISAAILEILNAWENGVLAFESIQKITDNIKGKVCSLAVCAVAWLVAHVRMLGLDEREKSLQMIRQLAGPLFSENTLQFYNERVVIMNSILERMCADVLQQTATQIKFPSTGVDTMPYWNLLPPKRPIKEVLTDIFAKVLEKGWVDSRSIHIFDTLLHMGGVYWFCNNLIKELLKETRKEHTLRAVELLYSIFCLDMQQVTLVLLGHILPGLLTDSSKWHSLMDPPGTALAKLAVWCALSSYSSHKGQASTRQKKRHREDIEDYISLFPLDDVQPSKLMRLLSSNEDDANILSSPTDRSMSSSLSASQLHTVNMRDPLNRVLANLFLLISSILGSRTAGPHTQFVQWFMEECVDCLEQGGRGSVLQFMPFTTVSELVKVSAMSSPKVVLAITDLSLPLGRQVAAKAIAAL
In short: as §1

Measured: binding result

RTTN, sequence (Q86VV8 whole entry): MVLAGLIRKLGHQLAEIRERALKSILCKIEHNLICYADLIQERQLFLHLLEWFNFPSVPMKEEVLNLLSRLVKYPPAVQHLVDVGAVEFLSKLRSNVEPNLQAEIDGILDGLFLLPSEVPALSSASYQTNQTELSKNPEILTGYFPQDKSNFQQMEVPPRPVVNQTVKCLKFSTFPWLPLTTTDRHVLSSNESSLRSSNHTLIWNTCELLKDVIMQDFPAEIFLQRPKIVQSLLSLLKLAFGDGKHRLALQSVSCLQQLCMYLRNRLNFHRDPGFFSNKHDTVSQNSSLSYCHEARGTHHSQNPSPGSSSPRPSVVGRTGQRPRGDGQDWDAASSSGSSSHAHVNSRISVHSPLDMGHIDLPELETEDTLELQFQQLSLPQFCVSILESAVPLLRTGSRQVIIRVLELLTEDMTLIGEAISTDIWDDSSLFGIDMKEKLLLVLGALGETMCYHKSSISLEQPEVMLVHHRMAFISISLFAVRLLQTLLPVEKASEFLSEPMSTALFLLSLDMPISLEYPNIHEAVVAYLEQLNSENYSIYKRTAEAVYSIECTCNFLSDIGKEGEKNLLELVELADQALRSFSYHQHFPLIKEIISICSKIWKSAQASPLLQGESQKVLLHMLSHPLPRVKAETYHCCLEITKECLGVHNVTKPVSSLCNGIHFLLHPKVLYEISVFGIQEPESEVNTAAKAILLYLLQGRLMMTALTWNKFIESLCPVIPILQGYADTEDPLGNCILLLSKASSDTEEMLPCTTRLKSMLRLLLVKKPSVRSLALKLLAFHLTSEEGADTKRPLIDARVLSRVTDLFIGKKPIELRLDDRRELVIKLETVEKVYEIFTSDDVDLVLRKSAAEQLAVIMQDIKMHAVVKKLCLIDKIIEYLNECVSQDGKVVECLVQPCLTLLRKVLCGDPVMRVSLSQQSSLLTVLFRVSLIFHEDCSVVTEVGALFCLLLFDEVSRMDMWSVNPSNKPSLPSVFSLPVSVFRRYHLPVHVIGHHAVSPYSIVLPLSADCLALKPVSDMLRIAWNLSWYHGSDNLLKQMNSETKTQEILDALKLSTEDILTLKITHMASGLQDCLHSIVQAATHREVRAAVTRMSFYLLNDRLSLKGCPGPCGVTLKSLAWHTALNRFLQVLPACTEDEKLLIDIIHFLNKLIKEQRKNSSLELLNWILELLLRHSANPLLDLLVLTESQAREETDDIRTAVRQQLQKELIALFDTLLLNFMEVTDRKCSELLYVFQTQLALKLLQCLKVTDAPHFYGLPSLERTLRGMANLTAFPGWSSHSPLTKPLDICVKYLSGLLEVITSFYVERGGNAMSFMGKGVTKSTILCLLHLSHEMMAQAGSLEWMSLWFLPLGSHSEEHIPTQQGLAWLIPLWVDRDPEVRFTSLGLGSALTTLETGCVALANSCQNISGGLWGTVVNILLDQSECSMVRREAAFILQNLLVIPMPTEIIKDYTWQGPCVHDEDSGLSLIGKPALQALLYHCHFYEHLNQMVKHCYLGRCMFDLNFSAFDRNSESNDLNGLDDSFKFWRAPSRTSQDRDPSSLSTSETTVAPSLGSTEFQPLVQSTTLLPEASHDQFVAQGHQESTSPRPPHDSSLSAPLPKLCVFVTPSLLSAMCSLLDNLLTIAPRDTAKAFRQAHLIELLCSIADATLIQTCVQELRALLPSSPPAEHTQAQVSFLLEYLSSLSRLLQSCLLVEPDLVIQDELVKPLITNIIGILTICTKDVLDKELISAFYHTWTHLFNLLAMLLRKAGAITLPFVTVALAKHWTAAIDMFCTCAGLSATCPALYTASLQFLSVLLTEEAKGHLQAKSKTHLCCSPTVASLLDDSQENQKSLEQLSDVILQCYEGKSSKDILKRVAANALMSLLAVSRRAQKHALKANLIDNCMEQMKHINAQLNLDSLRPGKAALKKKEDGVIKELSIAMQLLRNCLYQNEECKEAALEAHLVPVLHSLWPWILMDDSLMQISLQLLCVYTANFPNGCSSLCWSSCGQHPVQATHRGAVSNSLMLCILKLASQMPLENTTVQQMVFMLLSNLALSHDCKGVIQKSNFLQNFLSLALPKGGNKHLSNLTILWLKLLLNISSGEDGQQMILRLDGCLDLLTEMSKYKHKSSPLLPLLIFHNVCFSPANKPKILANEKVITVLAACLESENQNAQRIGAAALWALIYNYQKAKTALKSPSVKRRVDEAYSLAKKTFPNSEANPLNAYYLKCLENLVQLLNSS

B1: LZTR1 R810W-FLAG (other, human, UniProt Q8N653 1-840, looked up)
chain: MAGPGSTGGQIGAAALAGGARSKVAPSVDFDHSCSDSVEYLTLNFGPFETVHRWRRLPPCDEFVGARRSKHTVVAYKDAIYVFGGDNGKTMLNDLLRFDVKDCSWCRAFTTGTPPAPRYHHSAVVYGSSMFVFGGYTGDIYSNSNLKNKNDLFEYKFATGQWTEWKIEGRLPVARSAHGATVYSDKLWIFAGYDGNARLNDMWTIGLQDRELTCWEEVAQSGEIPPSCCNFPVAVCRDKMFVFSGQSGAKITNNLFQFEFKDKTWTRIPTEHLLRGSPPPPQRRYGHTMVAFDRHLYVFGGAADNTLPNELHCYDVDFQTWEVVQPSSDSEVGGAEVPERACASEEVPTLTYEERVGFKKSRDVFGLDFGTTSAKQPTQPASELPSGRLFHAAAVISDAMYIFGGTVDNNIRSGEMYRFQFSCYPKCTLHEDYGRLWESRQFCDVEFVLGEKEECVQGHVAIVTARSRWLRRKITQARERLAQKLEQEAAPVPREAPGVAAGGARPPLLHVAIREAEARPFEVLMQFLYTDKIKYPRKGHVEDVLLIMDVYKLALSFQLCRLEQLCRQYIEASVDLQNVLVVCESAARLQLSQLKEHCLNFVVKESHFNQVIMMKEFERLSSPLIVEIVRRKQQPPPRTPLDQPVDIGTSLIQDMKAYLEGAGAEFCDITLLLDGHPRPAHKAILAARSSYFEAMFRSFMPEDGQVNISIGEMVPSRQAFESMLRYIYYGEVNMPPEDSLYLFAAPYYYGFYNNRLQAYCKQNLEMNVTVQNVLQILEAADKTQALDMKRHCLHIIVHQFTKVSKLPTLWSLSQQLLLDIIDSLASHISDKQCAELGADI
notes: Stably expressed in U87 cells by lentivirus; also called LZTR1-FLAG-R810W; LZTR1 RW; not shown: FLAG tag
binds: FKBP15 | VPS13A | RTTN | MED24
